We go through one substance from patent US20120064078A1.

The target in the test is intracellular Hsp90α (human) (human) (UniProt P07900). The experiment in a line: cell-based or functional assay.

Turning to “human PP5 in MCF-7 cells (overexpressed from pcDNA3.1/Myc-His(-) or endogenous, knocked down by siRNA) (from UniProt P53041 2-499)”, the Thr90 phosphorylated Hsp90α (pT90-Hsp90α) level in MCF-7 cells on overexpression of human PP5 (fold of control) worked out at 0.55 and the Thr90 phosphorylated Hsp90α (pT90-Hsp90α) level in MCF-7 cells on siRNA knock-down of human PP5 (fold of control) turned out to be 1.58.
